B1: wild-type Stu2-eGFP (Stu2 residues 1–888, full-length; dimer) (natural protein, S. cerevisiae, UniProt P46675 1-888, looked up)
chain: MSGEEEVDYTTLPLEERLTYKLWKARLEAYKELNQLFRNSVGDISRDDNIQIYWRDPTLFAQYITDSNVVAQEQAIVALNSLIDAFASSSLKNAHNITLISTWTPLLVEKGLTSSRATTKTQSMSCILSLCGLDTSITQSVELVIPFFEKKLPKLIAAAANCVYELMAAFGLTNVNVQTFLPELLKHVPQLAGHGDRNVRSQTMNLIVEIYKVTGNNSDLLEEILFKKLKPIQVKDLHKLFAKVGDEPSSSKMLFEWEKRELEKKRSQEEEARKRKSILSNDEGEYQIDKDGDTLMGMETDMPPSKQQSGVQIDTFSMLPEETILDKLPKDFQERITSSKWKDRVEALEEFWDSVLSQTKKLKSTSQNYSNLLGIYGHIIQKDANIQAVALAAQSVELICDKLKTPGFSKDYVSLVFTPLLDRTKEKKPSVIEAIRKALLTICKYYDPLASSGRNEDMLKDILEHMKHKTPQIRMECTQLFNASMKEEKDGYSTLQRYLKDEVVPIVIQIVNDTQPAIRTIGFESFAILIKIFGMNTFVKTLEHLDNLKRKKIEETVKTLPNFSIASGSTHSTIETNKQTGPMENKFLLKKSSVLPSKRVASSPLRNDNKSKVNPIGSVASASKPSMVAANNKSRVLLTSKSLATPKNVVANSTDKNEKLIEEYKYRLQKLQNDEMIWTKERQSLLEKMNNTENYKIEMIKENEMLREQLKEAQSKLNEKNIQLRSKEIDVNKLSDRVLSLENELRNMEIELDRNKKRNDTNLQSMGTISSYSIPSSTVSSNYGVKSLSSALPFKEEEDVRRKEDVNYERRSSESIGDLPHRVNSLNIRPYRKNGTGVSSVSDDLDIDFNDSFASEESYKRAAAVTSTLKARIEKMKAKSRREGTTRT
notes: Stu2 (Stu2p), S. cerevisiae, residues 1-888; also called Stu2p; WT; source: E. coli Arctic Express, purified (His60 Superflow, Strep-Tactin); not shown: eGFP, C-terminal, kept
B2: Stu2 TOG1 domain ('TOG1-tail', 1–317) (domain or fragment, S. cerevisiae, UniProt P46675 1-317, looked up)
chain: MSGEEEVDYTTLPLEERLTYKLWKARLEAYKELNQLFRNSVGDISRDDNIQIYWRDPTLFAQYITDSNVVAQEQAIVALNSLIDAFASSSLKNAHNITLISTWTPLLVEKGLTSSRATTKTQSMSCILSLCGLDTSITQSVELVIPFFEKKLPKLIAAAANCVYELMAAFGLTNVNVQTFLPELLKHVPQLAGHGDRNVRSQTMNLIVEIYKVTGNNSDLLEEILFKKLKPIQVKDLHKLFAKVGDEPSSSKMLFEWEKRELEKKRSQEEEARKRKSILSNDEGEYQIDKDGDTLMGMETDMPPSKQQSGVQIDTFS
notes: Stu2 (Stu2p), S. cerevisiae, TOG1 domain with tail, residues 1-317; source: expression and purification previously described (Ayaz et al., 2012, 2014)

What was measured:
[1] = molecular target: the molecule itself; assay: single-molecule photobleaching (TIRF); fluorescence intensity trace of stationary Stu2-eGFP; steps of photobleaching counted
[2] = molecular target: T1, wild-type yeast microtubules (polymerized wild-type yeast αβ-tubulin) (S. cerevisiae, UniProt P09733 1-447; P02557 1-457); assay: single-molecule TIRF microscopy, residence time on the growing microtubule end; 5 nM Stu2-eGFP variant with 1-1.5 µM unlabeled wild-type yeast tubulin; 100 ms streaming; one-phase exponential fit of the dwell times; 30°C; conditions: both partners purified
T1 construct: Tub1p (yeast α-tubulin), S. cerevisiae; Tub2p (yeast β-tubulin), S. cerevisiae; Polymer of m2; also called microtubule lattice; microtubule end

[3] = molecular target: T1, wild-type yeast microtubules …; assay: TIRF microscopy, fluorescence intensity of the Stu2-eGFP spot on the growing microtubule end; end intensity dynamic assay; 5-300 nM Stu2-eGFP (titration, hyperbolic fit; apparent) or 200 nM variant; 0.8 μM wild-type yeast tubulin; 30°C; conditions: both partners purified
[4] = molecular target: T2, β:T238A yeast microtubules (polymerized Tub2:T238A αβ-tubulin) (S. cerevisiae, UniProt P09733 1-447; P02557 1-457, T238A); assay: TIRF microscopy of Stu2-eGFP on dynamic microtubules (kymographs); axoneme-seeded unlabeled dynamic yeast microtubules on the cover slip; Stu2-eGFP variant (100-200 nM) with 0.5-0.8 μM unpolymerized yeast tubulin in imaging buffer (1X PEM, 50 µM GTP, 0.1 mg/mL BSA, antifade); 30°C; conditions: both partners purified
T2 construct: Tub1p (yeast α-tubulin), S. cerevisiae; Tub2p (yeast β-tubulin), S. cerevisiae; also called β:T238A microtubules; mutant microtubules

[5] = molecular target: T3, plus-end blocked yeast αβ-tubulin (β:T175R,V179R) (S. cerevisiae, UniProt P09733 1-447; P02557 1-457, T175R | V179R); assay: TIRF microscopy of Stu2-eGFP on stabilized microtubules; GTPγS-stabilized wild-type yeast microtubules held on the cover slip by His-Tag antibody; 100 nM Stu2-eGFP flowed in without or with 1 μM unpolymerized tubulin (wild type or mutant; mixed on ice for 10 min); imaging buffer; 30°C; conditions: both partners purified
T3 construct: Tub1p (yeast α-tubulin), S. cerevisiae; Tub2p (yeast β-tubulin), S. cerevisiae; also called LR1

[6] = molecular target: T4, minus-end blocked yeast αβ-tubulin (α:T350E) (S. cerevisiae, UniProt P09733 1-447; P02557 1-457, T350E); assay: as above; conditions: both partners purified
T4 construct: Tub1p (yeast α-tubulin), S. cerevisiae; Tub2p (yeast β-tubulin), S. cerevisiae; also called T350E α-tubulin

[7] = molecular target: T5, wild-type yeast αβ-tubulin (unpolymerized) (S. cerevisiae, UniProt P09733 1-447; P02557 1-457); assay: SEC; gel filtration on Shodex KW-803 in BRB80 (80 mM PIPES pH 6.9, 1 mM MgCl2, 1 mM EGTA) with 50 μM GTP; 1 μM TOG1-tail and 1 μM tubulin, alone or mixed, equilibrated on ice for 20 min; conditions: both partners purified
T5 construct: Tub1p (yeast α-tubulin), S. cerevisiae; Tub2p (yeast β-tubulin), S. cerevisiae; also called WT tubulin; unpolymerized tubulin

[8] = molecular target: T6, side-blocked yeast αβ-tubulin (β:F281A) (S. cerevisiae, UniProt P09733 1-447; P02557 1-457, F281A); assay: as above; conditions: both partners purified
T6 construct: Tub1p (yeast α-tubulin), S. cerevisiae; Tub2p (yeast β-tubulin), S. cerevisiae; also called Tub2:F281A

[9] = molecular target: T7, lateral-interface mutant yeast αβ-tubulin (α:H284A) (S. cerevisiae, UniProt P09733 1-447; P02557 1-457, H284A); assay: as above; conditions: both partners purified
T7 construct: Tub1p (yeast α-tubulin), S. cerevisiae; Tub2p (yeast β-tubulin), S. cerevisiae; also called Tub1-H284A; Tub1:H284A

[10] = molecular target: T3, plus-end blocked yeast αβ-tubulin …; assay: AUC; sedimentation velocity, 50,000 rpm, 20°C, absorbance at 229 nm; RB100 (25 mM Tris pH 7.5, 100 mM NaCl, 1 mM MgCl2, 1 mM EGTA) with 20 µM GTP; 0.3 µM tubulin with 0.1-3 µM TOG1-tail; isotherms fitted with a 1:1 effective-particle model; conditions: both partners purified

| Binder | stoichiometry N [1] | characteristic residence time on the growing microtubule end [2] [s] | EC50 [3] [nM] | binding result [4] | binding result [5] | binding result [6] | binding result [7] | binding result [8] | binding result [9] | binding result [10] |
| --- | --- | --- | --- | --- | --- | --- | --- | --- | --- | --- |
| B1 | 2 | 2.2 | 19 | binds | binds | binds |  |  |  |  |
| B2 |  |  |  |  |  |  | binds | binds | binds | binds |

Reference: article PMC5999394, “Design principles of a microtubule polymerase” (eLife, 2018)
